Measurements reported in patent US20260242478A1 (published 2026).
Where no end group is shown, it is not given here.

B1: Phage-2543 (peptide)
peptide: SEHWCIPQWMCQSV
modifications: cysteine pairing not given here; also: fused to phage pIII, linker and fusion site not given here
B2: Phage-2547 (peptide)
peptide: EGKWCIPDWMCAAH
modifications: cysteine pairing not given here; also: fused to phage pIII, linker and fusion site not given here
B3: Phage-2571 (peptide)
peptide: IAKWCIPSWMCAGI
modifications: cysteine pairing not given here; also: fused to phage pIII, linker and fusion site not given here
B4: Phage-2563 (peptide)
peptide: NWKWCIPEWMCAAE
modifications: cysteine pairing not given here; also: fused to phage pIII, linker and fusion site not given here

Biological target: T1, PSMA Fab (006 PSMA Fab)
T1 construct: also called Anti-PSMA Fab; anti-PSMA Fab
Assay: clonal phage ELISA; biotinylated PSMA Fab on neutravidin plate, wells pre-incubated with PSMA antigen as competitor; anti-M13 HRP detection;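 also: crude clonal phage supernatants added to antigen-treated wells without a wash, incubated briefly, then bound phage read out via horse radish–conjugated anti-M13 antibody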
Procedure: (§1) Clonal phage were harvested as crude supernatants and screened via standard ELISAs. […] Prior to the addition of clonal phage. wells were incubated with blocking buffer and PSMA antigen or blocking buffer alone. Without washing or aspirating, clonal phage supernatants were then added to the wells and incubated for a short time. Wells were then washed followed by detection of bound phage using a horse radish conjugated anti-M13 antibody.

In order of rising “Phage binding ELISA signal, Anti-PSMA Fab in presence of PSMA antigen” value:
1. LTQWCIPQWMCEGS (Row prints L T Q W - I - Q - - - E - S) [Phage-2515]  0.0537
2. IDPRCIPEWMCIGY (Row prints - D P R - I - E - - - I - Y) [Phage-2518]  0.0633
3. IVRWCTPEWMCVGF (Row prints - V R W - T - E - - - V - -) [Phage-2523]  0.0674
4. AVKWCTPAWMCSGF (Row prints A V K W - T - A - - - S - -) [Phage-2524]  0.0682
5. HERSCIPAWMCWRQ (Row prints H E R S - I - A - - - W R Q) [Phage-2522]  0.0706
6. VPKWCTPAWMCTGL (Row prints V P K W - T - A - - - T - L) [Phage-2516]  0.0721
7. WEKWCTPSWMCSAG (Row prints W E K W - T - S - - - S A G) [Phage-2526]  0.0743
8. DNKWCIPEWMCFAS (Row prints D N K W - I - E - - - F A S) [Phage-2521]  0.0796
9. PIPLCIPLWMCEER (Row prints P I P - - I - L - - - E E R) [Phage-2520]  0.0838
10. VPIWCTPEWMCSGF (Row prints V P I W - T - E - - - S - -) [Phage-2519]  0.0879
11. VITWCTPPWMCSGW (Row prints V I T W - T - P - - - S - W) [Phage-2525]  0.0911
12. EIKWCTPAWMCAIN (Row prints E I K W - T - A - - - - I N) [Phage-2514]  0.0972
13. VDNWCTPMWMCAWI (Row prints V D N W - T - M - - - - W I) [Phage-2517]  0.109

Biological target: T2, PSMA Fab (biotinylated (site not stated))
T2 construct: Biotinylated PSMA Fab captured on neutravidin plates in the phage ELISA; also called Anti-PSMA Fab; 006 PSMA Fab
Assay: phage ELISA; PSMA Fab-coated wells pre-incubated with PSMA antigen as competitor, anti-M13-HRP detection

In order of falling “Phage binding ELISA signal, Anti-PSMA Fab with PSMA antigen” value:
1. LYNWCTPAWMCYGY [Phage-2545]  0.284
2. MFKWCTPQWMCETM [Phage-2554]  0.124
3. B1  0.114
4. FENWCTPKWMCIGV [Phage-2548]  0.102
5. FHEWCIPSWMCFKE [Phage-2550]  0.0984
6. VQKWCIPPWMCTHI [Phage-2549]  0.0958
7. AEYWCIPRWMCSQH [Phage-2552]  0.0882
8. PLKWCIPQWMCTEA [Phage-2544]  0.0825
9. VLKWCTPAWMCTGF [Phage-2557]  0.0805
10. GEKACIPAWMCSEN [Phage-2553]  0.0736
11. EPKWCTPPWMCQSV [Phage-2551]  0.0734
12. TQKLCIPEWMCEAM [Phage-2555]  0.0698
13. LQTWCIPPWMCEGG [Phage-2556]  0.0675
14. B2  0.0598
15. ESHWCIPAWMCEQF [Phage-2546]  0.0589

Biological target: T3, PSMA Fab (SEQ ID NOs: 19, 20)
T3 construct: Biotinylated and captured on neutravidin coated plates in the phage ELISA; also called Anti-PSMA Fab; 006 PSMA Fab
Assay: phage ELISA; biotinylated PSMA Fab on neutravidin plate, anti-M13 HRP; no PSMA antigen
Procedure: as §1

In order of falling “phage binding ELISA signal” value:
1. WENWCTPTWMCWPN [Phage-2558]  1.12
2. GVMWCIPQWMCVTA [Phage-2560]  1.12
3. WDKWCTPPWMCQVH [Phage-2559]  1.12
4. YDVLCKPDWMCNWN [Phage-2568]  1.11
5. VEKWCIPEWMCWTV [Phage-2565]  1.11
6. B4  1.11
7. EPKWCTPPWMCENF [Phage-2567]  1.11
8. IAKLCTPAWMCERH [Phage-2562]  1.11
9. YAPWCIPLWMCLDR [Phage-2561]  1.11
10. VDPWCKPAWMCLGM [Phage-2566]  1.11
11. SEIWCIPAWMCQST [Phage-2564]  1.11
12. AIHWCTPPWMCEPQ [Phage-2569]  1.1
13. EGPWCIPEWMCQNS [Phage-2570]  1.1
14. B3  1.1
15. QYNWCVPAWMCEIS [Phage-2572]  1.1

Biological target: T2, PSMA Fab
Assay: phage ELISA; biotinylated PSMA Fab on neutravidin plate, clonal phage supernatant, anti-M13-HRP detection;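 also: wells were preincubated with blocking buffer containing PSMA antigen or with blocking buffer only, then phage supernatant was added without washing for a brief incubation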
Procedure: as §1

In order of falling “Phage binding ELISA signal, Anti-PSMA Fab” value:
1. B1  1.15
2. LYNWCTPAWMCYGY [Phage-2545]  1.15
3. PLKWCIPQWMCTEA [Phage-2544]  1.15
4. AEYWCIPRWMCSQH [Phage-2552]  1.14
5. ESHWCIPAWMCEQF [Phage-2546]  1.14
6. EPKWCTPPWMCQSV [Phage-2551]  1.14
7. VQKWCIPPWMCTHI [Phage-2549]  1.14
8. B2  1.14
9. FENWCTPKWMCIGV [Phage-2548]  1.14
10. FHEWCIPSWMCFKE [Phage-2550]  1.14
11. GEKACIPAWMCSEN [Phage-2553]  1.13
12. MFKWCTPQWMCETM [Phage-2554]  1.13
13. VLKWCTPAWMCTGF [Phage-2557]  1.12
14. LQTWCIPPWMCEGG [Phage-2556]  1.12
15. TQKLCIPEWMCEAM [Phage-2555]  1.12

Biological target: T3, PSMA Fab (SEQ ID NOs: 19, 20)
Assay: phage ELISA; biotinylated PSMA Fab on neutravidin plate, anti-M13 HRP; competitor PSMA antigen pre-incubated
Procedure: as §1

In order of falling “phage binding ELISA signal” value:
1. YAPWCIPLWMCLDR [Phage-2561]  0.161
2. B3  0.139
3. GVMWCIPQWMCVTA [Phage-2560]  0.104
4. YDVLCKPDWMCNWN [Phage-2568]  0.0861
5. SEIWCIPAWMCQST [Phage-2564]  0.0851
6. QYNWCVPAWMCEIS [Phage-2572]  0.0848
7. WENWCTPTWMCWPN [Phage-2558]  0.0834
8. IAKLCTPAWMCERH [Phage-2562]  0.0803
9. AIHWCTPPWMCEPQ [Phage-2569]  0.0777
10. EGPWCIPEWMCQNS [Phage-2570]  0.0766
11. WDKWCTPPWMCQVH [Phage-2559]  0.0758
12. VEKWCIPEWMCWTV [Phage-2565]  0.0709
13. B4  0.0635
14. VDPWCKPAWMCLGM [Phage-2566]  0.0597
15. EPKWCTPPWMCENF [Phage-2567]  0.0576

Biological target: T1, PSMA Fab (006 PSMA Fab)
Assay: clonal phage ELISA; biotinylated PSMA Fab on neutravidin plate, blocking buffer alone; anti-M13 HRP detection;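 also: crude clonal phage supernatants added without washing to wells pretreated with blocking buffer with or without PSMA antigen, short incubation, then washed before detecting bound phage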
Procedure: as §1

In order of falling “Phage binding ELISA signal, Anti-PSMA Fab” value:
1. VDNWCTPMWMCAWI (Row prints V D N W - T - M - - - - W I) [Phage-2517]  1.18
2. IVRWCTPEWMCVGF (Row prints - V R W - T - E - - - V - -) [Phage-2523]  1.18
3. LTQWCIPQWMCEGS (Row prints L T Q W - I - Q - - - E - S) [Phage-2515]  1.18
4. AVKWCTPAWMCSGF (Row prints A V K W - T - A - - - S - -) [Phage-2524]  1.18
5. IDPRCIPEWMCIGY (Row prints - D P R - I - E - - - I - Y) [Phage-2518]  1.18
6. DNKWCIPEWMCFAS (Row prints D N K W - I - E - - - F A S) [Phage-2521]  1.18
7. VPKWCTPAWMCTGL (Row prints V P K W - T - A - - - T - L) [Phage-2516]  1.18
8. PIPLCIPLWMCEER (Row prints P I P - - I - L - - - E E R) [Phage-2520]  1.18
9. EIKWCTPAWMCAIN (Row prints E I K W - T - A - - - - I N) [Phage-2514]  1.18
10. VPIWCTPEWMCSGF (Row prints V P I W - T - E - - - S - -) [Phage-2519]  1.18
11. HERSCIPAWMCWRQ (Row prints H E R S - I - A - - - W R Q) [Phage-2522]  1.18
12. WEKWCTPSWMCSAG (Row prints W E K W - T - S - - - S A G) [Phage-2526]  1.17
13. VITWCTPPWMCSGW (Row prints V I T W - T - P - - - S - W) [Phage-2525]  1.17
